Results from patent US20150050301A1, “Contiguous Overlapping Peptides for Treatment of House Dust Mites Allergy” (ANERGIS S.A., priority 2013, published 2015).

What was measured:
[1] = system: IgE of sera of house dust mite allergic patients binding to nDer p 2; experiment: Competition ELISA on Der p 2 coated plates; parameters: species or system human
Method: (§1) Purified Der p 1 or Der p 2 at 1.0 μg/ml were coated overnight on 96-well Nunc Maxisorp® immunoplates (Thermo Fisher Scientific Inc., Wohlen, Switzerland). After blocking with 1% BSA, either twenty-fold, thirty-fold or forty-fold up to 200-fold dilutions of patient serum were added depending on specific IgE content. […] Sera of allergic patients were obtained from US and Europe (PlasmaLab International, Everett, Wash., USA and Biomnis, Lyon, France) respectively) selected for positive CAP for D. pteronyssinus and clear signal over background and used to test for competition with the peptides. Serial dilutions of each set of COPs, namely for Der p 1 Set A, B, C or D and for Der p 2 mixes D, E or F at concentrations ranging from 10^−5 to 10^−10 M were pre-incubated with selected serums for 15 min. on ice.

IgE = experiment: Direct ELISA of Der p 2 COPs; assay type: binding, human
[2] = Solubility Characteristics of COPs; assay type: physicochemical
Method: All COPs were synthesized by solid phase fmoc chemistry at research scale to allow determination of IgE binding. […] Peptides were resuspended either in water at 2 mg/ml or at 10 to 20 mg per ml in DMSO (see Table 1) and frozen in aliquots.

[3] = system: RBL-703/21 cells transfected with human Fc epsilon RI receptor, sensitized with sera from patients with house dust mite allergy; experiment: RBL degranulation; assay type: cell-based; details: RBL cells pre-loaded with 18 human serums; AllerDM up to 10^−5M
Method: Degranulation assay was performed as described in [37]. RBL-703/21 cells transfected with human Fc epsilon RI receptor were plated in 96-well tissue culture plates (10^5 cells/well) overnight. Passive sensitization of RBL-703/21 cells was carried out with sera from patients with house dust mite allergy at 1:20 overnight. Unbound antibodies were removed by washing the cell layer twice in Hanks' balanced salt solution (Gibco, Life technologies) the next day. Degranulation of RBL cells was induced for 1 h at 37° C. by adding nDer p1, nDer p 2 or individual COPs and mixes at indicated concentrations diluted in Tyrode's buffer (130 mM NaCl, 5 mM KCl, 1.4 mM CaCl2, 1 mM MgCl2, 5.6 mM glucose, 10 mM HEPES pH7.4, 0.1% BSA). β-hexosaminidase activity was analyzed by incubating 30 μl of cell supernatant with 50 μl of 1.3 mg/ml 4-Nitrophenyl N-acetyl-β-D-glucosaminide (Sigma) in citrate buffer (0.1M, pH 4.5) for 1 h at 37° C. The reaction was stopped by addition of 100 μl glycine buffer (0.2M glycine, 0.2M NaCl, pH 10.7) and optical densities (OD) were measured at 405 nm.

[4] = system: IgE of sera of house dust mite allergic patients binding to nDer p 1; experiment: Competition ELISA on Der p 1 coated plates; parameters: species or system human; details: panel of 21 sera
Method: as §1

In the case of “SIDGLEVDVPGIDPNACHYMKCPLVKGQQYDIKYTWNVPKIAPKSENVVVTVKVMGDDGVLACAIATHAKIRD [AllerDM2.2]”, the “effect of denaturing salts on IgE binding (Der p 2 competition ELISA)” value ([1]; denaturing salts incl. guanidinium chloride or urea, 30 min pre-incubation with 1M guanidinium chloride) is reported as “strongly diminished IgE binding”, the “IgE binding in direct ELISA” value (IgE) is reported as “found to bind IgE” and the Conc. [2] is reported as 1700 µg/mL.

B1: Der p 1: purified natural Der p 1 house dust mite major allergen from Indoor Biotechnologies Ltd (protein)
chain: TNACSINGNAPAEIDLRQMRTVTPIRMQGGCGSCWAFSGVAATESAYLAYRNQSLDLAEQELVDCASQHGCHGDTIPRGIEYIQHNGVVQESYYRYVAREQSCRRPNAQRFGISNYCQIYPPNVNKIREALAQTHSAIAVIIGIKDLDAFRHYDGRTIIQRDNGYQPNYHAVNIVGYSNAQGVDYWIVRNSWDTNWGDNGYGYFAANIDLMMIEEYPYVVIL
For B1, the “basophil degranulation of RBL cells, serum panel” value [3] was “able to induce degranulation” and the “concentration range of competition (Der p 1 control)” value [4] was 10^−7 to 10^−9 M.

B2: Der p 2: purified natural Der p 2 house dust mite major allergen from Indoor Biotechnologies Ltd (protein)
chain: DQVDVKDCANHEIKKVLVPGCHGSEPCIIHRGKPFQLEALFEANQNSKTAKIEIKASIDGLEVDVPGIDPNACHYMKCPLVKGQQYDIKYTWNVPKIAPKSENVVVTVKVLGDNGVLACAIATHAKIRD
For B2, the “concentration range of competition (Der p 2 control)” value ([1]; panel of 21 sera) was 10^−7 to 10^−9 M and the “basophil degranulation of RBL cells, serum panel” value [3] was “able to induce degranulation”.
